The results in this text go back to ChEMBL document CHEMBL1152703, “Design and synthesis of a beta-lactamase activated 5-fluorouracil prodrug” (Bioorg Med Chem Lett, 2009).

In general, Km refers to the substrate concentration at which the rate is half of its maximum. One may read the Vmax as the rate approached at saturating substrate.

Substrate in this data set: O=C(Cc1cccs1)N[C@@H]1C(=O)N2C(C(=O)O)=C(Cn3c(=O)[nH]cc(F)c3=O)CS[C@H]12
The data set is described as follows: Activity at Enterobacter cloacae P99 beta-lactamase by Michaelis-Menten equation.

B1: Beta-lactamase (Enterobacter cloacae), P05364 (protein)
chain: MMRKSLCCALLLGISCSALATPVSEKQLAEVVANTITPLMKAQSVPGMAVAVIYQGKPHYYTFGKADIAANKPVTPQTLFELGSISKTFTGVLGGDAIARGEISLDDAVTRYWPQLTGKQWQGIRMLDLATYTAGGLPLQVPDEVTDNASLLRFYQNWQPQWKPGTTRLYANASIGLFGALAVKPSGMPYEQAMTTRVLKPLKLDHTWINVPKAEEAHYAWGYRDGKAVRVSPGMLDAQAYGVKTNVQDMANWVMANMAPENVADASLKQGIALAQSRYWRIGSMYQGLGWEMLNWPVEANTVVEGSDSKVALAPLPVAEVNPPAPPVKASWVHKTGSTGGFGSYVAFIPEKQIGIVMLANTSYPNPARVEAAYHILEALQ
B1: the Km is 95.4 µM and the Vmax was 3.21 µmol/min/mg.
